Values quoted from earlier work, collected in article PMC3386632.

Target: integrin αIIbβ3 (Homo sapiens) (UniProt P08514)

In the case of disagregin (from UniProt P36235), the Kd is given as 40 nM.
